For assay [1], the target named is GluA2 flip splice variant (R/G edited) (UniProt P19491).
For assay [2], the target named is GluA2 flop splice variant (UniProt P19491).
Assay [3] concerns the target GluA2 flip splice variant (R/G edited) (UniProt P19491). The source holds these as a separate data set.
Assay [4] deals with GluA2, native in CA1 pyramidal cells (rat (endogenous in hippocampal slice cultures)) (UniProt P19491).

Bounds are passed on as bounds.

With “GluA1 flip splice variant (from UniProt P19490-2 19-907) (receptor)”, the rectification index (g+10 / g-40) of I/V relationships with 100 uM intracellular spermine, HEK293T cells cotransfected at an A1/A2 ratio of 4:1; marker for heteromerization competence in assay [1] worked out at 0.1. The rectification index of patches from HEK293 cells expressing A1i/A2o and γ-8 (threshold by which patches were chosen) in assay [2] is above 0.7.

Consider “GluA1 flop splice variant (from UniProt P19490 19-907) (receptor)”, for which the rectification index (g+10 / g-40) of I/V relationships with 100 uM intracellular spermine, HEK293T cells cotransfected at an A1/A2 ratio of 4:1; marker for heteromerization competence in assay [1] came out at 0.7. Moreover, the rectification index of patches from HEK293 cells expressing A1o/A2i and γ-8 (threshold by which patches were chosen) in assay [3] is above 0.7.

In assay [4], “GluA1, native in CA1 pyramidal cells (from UniProt P19490 19-907) (receptor)” came in with a percentage block of the peak glutamate current by 100 μM philanthotoxin 74 (selective for A1/A2 heteromers), CA1 patches, control slices, mean of 95% and a percentage block of the peak glutamate current by 100 μM philanthotoxin 74 (selective for A1/A2 heteromers), CA1 patches, slices after 48 hr TTX, mean of 93.9%.
